Data: publication PMC13486763

Molecular target: Porcine RNA polymerase II (porcine) (UniProt I3LGP4)
Assay: mass photometry; Pol II or Pol II-Gdown1 complex with GPN1-GPN3 and/or RPAP2 in a 1:2:2 molar ratio, 30 minutes at 4 °C; measured at 20 nM; 20 mM HEPES-NaOH pH 7.9, 100 mM NaCl, 2 mM MgCl2, 10 µM ZnCl2, 1 mM DTT

stoichiometry N: 2
Substance: Porcine RNA polymerase II (from UniProt I3LGP4 127-1300; P60899 1-125; A0A4X1VYD0 1-67; A0A8D0JYF1 1-58) (complex)
